Experimental data: US9809808B2, “Antimicrobial agents” (KATHOLIEKE UNIVERSITEIT LEUVEN K.U. LEUVEN R&D, priority 2008, dated 2017)
Like-named read-outs stand apart in the source and are kept apart here.

Experiments:
[1] = tested on: P. aeruginosa Br667; assay: Antibacterial activity of PSP3gp10 and PKPSP3gp10 with and without EDTA (30 minutes, colony count); assay type: cell-based, Pseudomonas aeruginosa
[2] = tested on: Escherichia coli WK6; assay: as above; assay type: cell-based
Experimental: (§1) To determine the anti-Gram-negative spectrum of the PKPSP3gp10 endolysin according to SEQ ID NO: 53, a combination of 1.315 μM PKPSP3gp10 endolysin and 0.5 mM EDTA was tested on the clinical P. aeruginosa strains PAO1p and Br667, Escherichia coli WK6, and Salmonella typhimurium (see Table 5). Exponential growing bacterial cells (OD600 nm of 0.6) were 100-fold diluted to a final density of about 10^6/ml of each strain were incubated for 30 minutes at room temperature without shaking with unmodified endolysin […] (SEQ ID NO: 8) and modified endolysin PKPSP3gp10 (SEQ ID NO: 53) each in combination without and with 0.5 mM EDTA. […] As a control each strain was also incubated for 30 minutes with 0.5 mM EDTA (in same buffer as outlined above) but no endolysin.
(§2) After incubation cell suspensions were diluted three times (respectively 10^5-10^4-10^3 cells/ml) and 100 μl of each dilution was plated out on LB-medium.

[3] = tested on: Salmonella typhimurium LT2; assay: as above; assay type: cell-based
Experimental: as §1, §2

[4] = tested on: P. aeruginosa Br667; assay: Antibacterial activity of P2gp09 and PKP2gp09 with and without EDTA (30 minutes, colony count); assay type: cell-based, Pseudomonas aeruginosa; conditions: for relative inactivation in logarithmic units (log10N0/Ni): 30 minutes
[5] = tested on: P. putida G1; assay: as above; assay type: cell-based, Pseudomonas putida; conditions: for relative inactivation in logarithmic units (log10N0/Ni): 30 minutes
[6] = tested on: Escherichia coli WK6; assay: as above; assay type: cell-based; conditions: for relative inactivation in logarithmic units (log10N0/Ni): 30 minutes
Experimental: To determine the anti-Gram-negative spectrum of the PK2gp09 endolysin according to SEQ ID NO: 57, a combination of 1.315 μM PK2gp09 endolysin and 0,5 mM EDTA was tested on the clinical P. aeruginosa strains PAO1p and Br667 and on Escherichia coli WK6 (see Table 9). Exponential growing bacterial cells (OD600 nm of 0.6) were 100-fold diluted to a final density of about 10^6/ml of each strain was incubated for 30 minutes at room temperature without shaking with unmodified endolysin P2gp09 (SEQ ID NO: 9) and modified endolysin PKP2gp09 (SEQ ID NO: 57) each in combination without and with 0.5 mM EDTA. […] As a control each strain was also incubated for 30 minutes with 0.5 mM EDTA (in same buffer as outlined above) but no endolysin. After incubation cell suspensions were diluted three times (respectively 10^5-10^4-10^3 cells/ml) and 100 μl of each dilution was plated out on LB-medium.

[7] = tested on: P. aeruginosa Br667; assay type: cell-based, Pseudomonas aeruginosa; conditions: 0.5 mM EDTA, no endolysin, 30 minutes
[8] = tested on: P. putida G1; assay type: cell-based, Pseudomonas putida; conditions: 0.5 mM EDTA, no endolysin, 30 minutes
[9] = tested on: Escherichia coli WK6; assay type: cell-based; conditions: 0.5 mM EDTA, no endolysin, 30 minutes
[10] = tested on: Salmonella typhimurium LT2; assay type: cell-based; conditions: 0.5 mM EDTA, no endolysin, 30 minutes
[11] = tested on: Pseudomonas aeruginosa PAO1p cells; assay: Effect of different EDTA and endolysin concentrations on antibacterial activity of OBPgpLYS and PKOBPgpLYS; assay type: cell-based; conditions: no endolysin
Experimental: To determine the influence of EDTA on the antibacterial activity of unmodified and modified endolysins the antibacterial activity of the unmodified OBPgpLYS endolysin (SEQ ID NO: 7) and the PKOBPgpLYS endolysin (SEQ ID NO: 61) was tested on Pseudomonas aeruginosa PAO1p cells ([…] et al. J Clin Microbiol., 41(3):1192-1202 (2003)) using different concentrations of EDTA and endolysins. Exponential growing bacterial cells (OD600 nm of 0.6) were 100-fold diluted to a final density of about 10^6/ml and incubated for 30 minutes at room temperature without shaking with unmodified endolysin OBPgpLYS (SEQ ID NO: 7) and modified endolysin PKOBPgpLYS (SEQ ID NO: 61). […] Thereby, the following different EDTA concentrations were used: 0 mM, 0.05 mM, 0.5 mM and 10 mM. […] After incubation cell suspensions were diluted three times (respectively 10^5-10^4-10^3 cells/ml) and 100 μl of each dilution was plated out on LB-medium. […] All samples were replicated in threefold. Averages+/-standard deviations are represented.

[12] = tested on: Burkholderia pseudomallei; assay type: cell-based; conditions: for relative inactivation in logarithmic units (log10N0/Ni): 30 minutes
[13] = 1.315 μM endolysin + 0.5 mM EDTA

## O=C([O-])CN(CCN(CC(=O)[O-])CC(=O)O)CC(=O)O.[Na+].[Na+] [EDTA, reference compound]
[1]; 0.5 mM EDTA, no endolysin
  relative inactivation in logarithmic units (log10N0/Ni): 0.223 +/− 0.038 logarithmic units
[2]; 0.5 mM EDTA, no endolysin
  relative inactivation in logarithmic units (log10N0/Ni): 0.393 +/− 0.035 logarithmic units
[3]; 0.5 mM EDTA, no endolysin
  relative inactivation in logarithmic units (log10N0/Ni): 0.104 +/− 0.049 logarithmic units
[4]; 0.5 mM EDTA, no endolysin
  relative inactivation in logarithmic units (log10N0/Ni): 0.003 logarithmic units
[5]; 0.5 mM EDTA, no endolysin
  relative inactivation in logarithmic units (log10N0/Ni): 0.072 logarithmic units
[6]; 0.5 mM EDTA, no endolysin
  relative inactivation in logarithmic units (log10N0/Ni): 0.153 logarithmic units
[7]
  relative inactivation in logarithmic units (log10N0/Ni): 0.031 +/− 0.023 logarithmic units
[8]
  relative inactivation in logarithmic units (log10N0/Ni): 0.412 +/− 0.055 logarithmic units
[9]
  relative inactivation in logarithmic units (log10N0/Ni): 0.592 +/− 0.113 logarithmic units
[10]
  relative inactivation in logarithmic units (log10N0/Ni): 0.054 +/− 0.048 logarithmic units
[11]; 0.05 mM EDTA-Na2, 30 minutes
  relative inactivation in logarithmic units (log10N0/Ni): 0.028 +/− 0.008 log units
[11]; 0.5 mM EDTA-Na2, 30 minutes
  relative inactivation in logarithmic units (log10N0/Ni): 0.130 +/− 0.023 log units
[11]; 10 mM EDTA-Na2, 30 minutes
  relative inactivation in logarithmic units (log10N0/Ni): 1.827 +/− 0.052 log units

B1: PKPSP3gp10: SEQ ID NO: 53: PSP3gp10 (SEQ ID NO: 8) with N-terminal peptide stretch KRKKRKKRK (SEQ ID NO: 11) (protein)
chain: MGSKRKKRKKRKPVINTHQNIAAFLDMLAYSEGTANHPLTKNRGYDVIVTGFDGSPEIFTDYSDHPFAHGRPPKVFNRRGEKSTASGRYQQLYIFWPHYKKQLALPDFSPLSQDKLAIQLIRERGAIDDIRAGRIERAVSRCRNIWASLPGAGYGQREHSLEKLVTVWRTAGGVMA
modifications: PKPSP3gp10
[1]; [13]
  relative inactivation in logarithmic units (log10N0/Ni): 0.891 +/− 0.118 logarithmic units
[1]; 1.315 μM endolysin, no EDTA
  relative inactivation in logarithmic units (log10N0/Ni): 0.353 +/− 0.086 logarithmic units
[2]; [13]
  relative inactivation in logarithmic units (log10N0/Ni): 0.584 +/− 0.024 logarithmic units
[2]; 1.315 μM endolysin, no EDTA
  relative inactivation in logarithmic units (log10N0/Ni): 0.205 +/− 0.088 logarithmic units
[3]; [13]
  relative inactivation in logarithmic units (log10N0/Ni): 0.850 +/− 0.032 logarithmic units
[3]; 1.315 μM endolysin, no EDTA
  relative inactivation in logarithmic units (log10N0/Ni): 0.327 +/− 0.057 logarithmic units

B2: PKP2gp09: SEQ ID NO: 57: P2gp09 (SEQ ID NO: 9) with N-terminal peptide stretch KRKKRKKRK (SEQ ID NO: 11) (protein)
chain: MGSKRKKRKKRKPVINTHQNIAAFLDMLAVSEGTANHPLTKNRGYDVIVTGLDGKPEIFTDYSDHPFAHGRPAKVFNRRGEKSTASGRYQQLYLFWPHYRKQLALPDFSPLSQDRLAIQLIRERGALDDIRAGRIERAISRCRNIWASLPGAGYGQREHSLEKLVTVWRTAGGVPA
modifications: PKP2gp09
[4]; 1.315 μM + 0.5 mM EDTA
  Δ, difference of activity between P2gp09 and PKP2gp09 samples: 0.370 logarithmic units
[4]; [13]
  relative inactivation in logarithmic units (log10N0/Ni): 0.952 +/− 0.213 logarithmic units
[4]; 1.315 μM endolysin, no EDTA
  relative inactivation in logarithmic units (log10N0/Ni): 0.300 +/− 0.062 logarithmic units
[4]; 1.315 μM, no EDTA
  Δ, difference of activity between P2gp09 and PKP2gp09 samples: 0.054 logarithmic units
[5]; 1.315 μM + 0.5 mM EDTA
  Δ, difference of activity between P2gp09 and PKP2gp09 samples: >0.467 logarithmic units
[5]; [13]
  relative inactivation in logarithmic units (log10N0/Ni): >4,386 logarithmic units
[5]; 1.315 μM endolysin, no EDTA
  relative inactivation in logarithmic units (log10N0/Ni): 1.014 +/− 0.139 logarithmic units
[5]; 1.315 μM, no EDTA
  Δ, difference of activity between P2gp09 and PKP2gp09 samples: 0.595 logarithmic units
[12]; 1.315 μM + 0.5 mM EDTA
  Δ, difference of activity between P2gp09 and PKP2gp09 samples: 0.365 logarithmic units
[12]; [13]
  relative inactivation in logarithmic units (log10N0/Ni): 4.255 +/− 0.001 logarithmic units
[12]; 1.315 μM endolysin, no EDTA
  relative inactivation in logarithmic units (log10N0/Ni): 1.163 +/− 0.073 logarithmic units
[12]; 1.315 μM, no EDTA
  Δ, difference of activity between P2gp09 and PKP2gp09 samples: 0.394 logarithmic units
[6]; 1.315 μM + 0.5 mM EDTA
  Δ, difference of activity between P2gp09 and PKP2gp09 samples: 0.749 logarithmic units
[6]; [13]
  relative inactivation in logarithmic units (log10N0/Ni): 1.545 +/− 0.102 logarithmic units
[6]; 1.315 μM endolysin, no EDTA
  relative inactivation in logarithmic units (log10N0/Ni): 1.104 +/− 0.039 logarithmic units
[6]; 1.315 μM, no EDTA
  Δ, difference of activity between P2gp09 and PKP2gp09 samples: 0.353 logarithmic units

B3: PSP3gp10: SEQ ID NO: 8: unmodified globular endolysin with 165 amino acid residues originating from Salmonella typhimurium phage PSP3 (protein)
chain: MPVINTHQNIAAFLDMLAYSEGTANHPLTKNRGYDVIVTGFDGSPEIFTDYSDHPFAHGRPPKVFNRRGEKSTASGRYQQLYIFWPHYKKQLALPDFSPLSQDKLAIQLIRERGAIDDIRAGRIERAVSRCRNIWASLPGAGYGQREHSLEKLVTVWRTAGGVMA
modifications: PSP3gp10
[1]; [13]
  relative inactivation in logarithmic units (log10N0/Ni): 0.571 +/− 0.035 logarithmic units
[1]; 1.315 μM endolysin, no EDTA
  relative inactivation in logarithmic units (log10N0/Ni): 0.375 +/− 0.056 logarithmic units
[2]; [13]
  relative inactivation in logarithmic units (log10N0/Ni): 0.387 +/− 0.014 logarithmic units
[2]; 1.315 μM endolysin, no EDTA
  relative inactivation in logarithmic units (log10N0/Ni): 0.190 +/− 0.029 logarithmic units
[3]; [13]
  relative inactivation in logarithmic units (log10N0/Ni): 0.690 +/− 0.036 logarithmic units
[3]; 1.315 μM endolysin, no EDTA
  relative inactivation in logarithmic units (log10N0/Ni): 0.283 +/− 0.038 logarithmic units

B4: P2gp09: SEQ ID NO: 9: unmodified globular endolysin of 165 amino acid residues originating from Escherichia coli phage P2 (protein)
chain: MPVINTHQNIAAFLDMLAVSEGTANHPLTKNRGYDVIVTGLDGKPEIFTDYSDHPFAHGRPAKVFNRRGEKSTASGRYQQLYLFWPHYRKQLALPDFSPLSQDRLAIQLIRERGALDDIRAGRIERAISRCRNIWASLPGAGYGQREHSLEKLVTVWRTAGGVPA
modifications: P2gp09
[4]; [13]
  relative inactivation in logarithmic units (log10N0/Ni): 0.582 logarithmic units
[4]; 1.315 μM endolysin, no EDTA
  relative inactivation in logarithmic units (log10N0/Ni): 0.246 logarithmic units
[5]; [13]
  relative inactivation in logarithmic units (log10N0/Ni): 3.919 logarithmic units
[5]; 1.315 μM endolysin, no EDTA
  relative inactivation in logarithmic units (log10N0/Ni): 0.419 logarithmic units
[12]; [13]
  relative inactivation in logarithmic units (log10N0/Ni): 3.8909 logarithmic units
[12]; 1.315 μM endolysin, no EDTA
  relative inactivation in logarithmic units (log10N0/Ni): 0.769 logarithmic units
[6]; [13]
  relative inactivation in logarithmic units (log10N0/Ni): 0.784 logarithmic units
[6]; 1.315 μM endolysin, no EDTA
  relative inactivation in logarithmic units (log10N0/Ni): 0.751 logarithmic units
